Publication PMC4204887

Assays:
[1] = biological target: wild-type transthyretin (WT TTR) (human) (UniProt P02766); assay: native gel or EMSA
[2] = biological target: Val122Ile transthyretin (V122I TTR) (human) (UniProt P02766); assay: native gel or EMSA

Row | Kex (subunit exchange rate constant) [1] [h⁻¹] | t50 of formation of the 2 FT2/2 TTR heterotetramer [1] [h] | t50 of formation of the 2 FT2/2 TTR heterotetramer [2] [h] | Substance
1 | 0.28 | 12.5 | – | tandem flag-tagged wild-type transthyretin (FT2·WT TTR) (from UniProt P02766 21-147) (natural protein)
2 | – | – | 2.84 | tandem flag-tagged Val122Ile transthyretin (FT2·V122I TTR) (from UniProt P02766 21-147) (natural protein)
